Laboratory results reported in the supplement of paper PMC9233669.
Variants at the floor of the assay were thinned out.

Columns and labels:
[1] = tested on: biotinyl-Leu-oxazolone; assay: self-aminoacylation, catalytic enhancement (BLO) (fold over background); higher = more active; k-Seq, kA / k0A0; sequences stand for … in GGGAAUGGAUCCACAUCUACGAAUUC…UUCACUGCAGACUUGACGAAGCUG
Procedure, shortened: (§1)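 Catalytic enhancement equals the median kA over the uncatalyzed rate, the latter read from the low-activity peak of a bimodal Gaussian fit. Values of kA came from fitting each sequence's fraction reacted to a pseudo-first-order model, with 1000 bootstraps. Reacted RNA was captured with streptavidin and quantified by triplicate qPCR and Illumina sequencing after 90 minutes at room temperature with 2–1250 μM biotinyl-aminoacyl-oxazolone and 0.43 μM mutagenized RNA pools bearing a 21-nt variable region.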

[2] = tested on: biotinyl-Met-oxazolone; assay: self-aminoacylation, catalytic enhancement (BMO) (fold over background); higher = more active; k-Seq, kA / k0A0; sequences stand for … in GGGAAUGGAUCCACAUCUACGAAUUC…UUCACUGCAGACUUGACGAAGCUG
Procedure, shortened: as §1

[3] = tested on: biotinyl-Ile-oxazolone; assay: self-aminoacylation, catalytic enhancement (BIO) (fold over background); higher = more active; k-Seq, kA / k0A0; sequences stand for … in GGGAAUGGAUCCACAUCUACGAAUUC…UUCACUGCAGACUUGACGAAGCUG
Procedure, shortened: as §1

[4] = tested on: biotinyl-Trp-oxazolone; assay: self-aminoacylation, catalytic enhancement (BWO) (fold over background); higher = more active; k-Seq, kA / k0A0; sequences stand for … in GGGAAUGGAUCCACAUCUACGAAUUC…UUCACUGCAGACUUGACGAAGCUG
Procedure, shortened: as §1

[5] = tested on: biotinyl-Phe-oxazolone; assay: self-aminoacylation, catalytic enhancement (BFO) (fold over background); higher = more active; k-Seq, kA / k0A0; sequences stand for … in GGGAAUGGAUCCACAUCUACGAAUUC…UUCACUGCAGACUUGACGAAGCUG
Procedure, shortened: as §1

[6] = tested on: biotinyl-Val-oxazolone; assay: self-aminoacylation, catalytic enhancement (BVO) (fold over background); higher = more active; k-Seq, kA / k0A0; sequences stand for … in GGGAAUGGAUCCACAUCUACGAAUUC…UUCACUGCAGACUUGACGAAGCUG
Procedure, shortened: as §1

Sequence | self-aminoacylation [1] | self-aminoacylation [2] | self-aminoacylation [3] | self-aminoacylation [4] | self-aminoacylation [5] | self-aminoacylation [6]
CCACACUUCAAGCAAUCCGUC [Fam1B.1 aminoacylation ribozyme variant] | 0.664 | 0.659 | 0.894 | 0.828 | 1.34 | 1.01
AAUUUUGCUAAUAGUCGCAGG [Fam3.1 aminoacylation ribozyme variant] | 1.98 | 1.76 | 1.89 | 2.05 | 2.65 | 1.83
AUGCACCUAGGUAAUCGGGUG [Fam2.2 aminoacylation ribozyme variant] | 2.31 | 2.56 | 2.07 | 3.25 | 10.9 | 1.94
AUUCACCUAGGGCAGCGGGUG [Fam2.2 aminoacylation ribozyme variant] | 7.39 | 7.29 | 5.78 | 7.98 | 39.8 | 4.76
AUUCACCUAGGUCAUCUGGUC [Fam2.2 aminoacylation ribozyme variant] | 0.596 | 0.623 | 0.522 | 0.378 | 0.411 | 0.686
AUUCACCUAGGUCAUGCGGUG [Fam2.2 aminoacylation ribozyme variant] | 6.55 | 4.77 | 4.12 | 5.3 | 33.8 | 4.13
CGACACUUCAAGCAGUCGGUC [Fam1B.1 aminoacylation ribozyme variant] | 1.23 | 1.64 | 1.25 | 1.74 | 1.04 | 0.99
AUUCACCGAGUUCAUCGGGUG [Fam2.2 aminoacylation ribozyme variant] | 5.07 | 4.92 | 3.56 | 4.3 | 37.1 | 3.14
AUUAACAUGGUCAUCGAGUGA [Fam2.1 aminoacylation ribozyme variant] | 6.1 | 5.53 | 3.41 | 8.43 | 26.1 | 3.23
AUUAACCUAGGUCAUCAGGUG [Fam2.2 aminoacylation ribozyme variant] | 1.47 | 1.35 | 1.24 | 1.43 | 1.4 | 1.48
AUUACGCUGGUCAUCGAUUGA [Fam2.1 aminoacylation ribozyme variant] | 1.24 | 1.29 | 1.18 | 1.41 | 0.858 | 1.18
CCACAAUUCAAGCAAUCGGCC [Fam1B.1 aminoacylation ribozyme variant] | 3.52 | 4.55 | 4.08 | 3.88 | 5.63 | 4.38
AUUACCCUGGUGAUCCAGUGA [Fam2.1 aminoacylation ribozyme variant] | 9.64 | 9.84 | 4.33 | 12.4 | 60.7 | 4.65
AUAACCCUCGUCAUCGAGUGA [Fam2.1 aminoacylation ribozyme variant] | 3.59 | 3.43 | 1.89 | 3.79 | 10.7 | 2.13
AUUACGCUGAUCAUCGAGUGA [Fam2.1 aminoacylation ribozyme variant] | 5.8 | 5.61 | 3.16 | 6.11 | 15 | 3.36
AUUCACCAAAGUCAUCGGGUG [Fam2.2 aminoacylation ribozyme variant] | 19.5 | 15.3 | 9.57 | 13.6 | 110 | 8.23
AAGUUUGCUAAUAGGCGCUAG [Fam3.1 aminoacylation ribozyme variant] | 0.647 | 0.723 | 0.648 | 0.561 | 0.86 | 0.722
AUUACCGUGGUCAUCUAGUGA [Fam2.1 aminoacylation ribozyme variant] | 6.26 | 6.98 | 3.29 | 7.82 | 31.2 | 3.82
AUUCACCUAGGACAUGGGGUG [Fam2.2 aminoacylation ribozyme variant] | 7.25 | 5.06 | 3.4 | 5.18 | 42.9 | 3.42
ACACACUUCAAGCAAUCGCUC [Fam1B.1 aminoacylation ribozyme variant] | 1.75 | 1.63 | 1.84 | 2.57 | 2.24 | 1.92
AAGUUUGCUAAAAGUCGCUAG [Fam3.1 aminoacylation ribozyme variant] | 0.944 | 0.781 | 0.911 | 0.783 | 1.38 | 0.803
AUGAGCCUGGUCAUCGAGUGA [Fam2.1 aminoacylation ribozyme variant] | 5.69 | 5.66 | 3.82 | 6.33 | 31.3 | 3.71
CUACCUCAAAAAAUCGGUCUG [Fam1A.1 aminoacylation ribozyme variant] | 1.49 | 1.41 | 1.02 | 1.3 | 1.28 | 1.01
AUUUUCCUAGGUCAUCGGGUG [Fam2.2 aminoacylation ribozyme variant] | 9.58 | 6.79 | 4.64 | 6.89 | 30.9 | 4.16
AAGUUUCCUAAUAGUCGCAAC [Fam3.1 aminoacylation ribozyme variant] | 1.5 | 1.73 | 1.59 | 2.18 | 2.42 | 1.31
